Values quoted from earlier work, collected in US11340238B2 (Biocon Limited, priority 2015, dated 2022).

Conditions: Type 1 Diabetes Mellitus patients on RHI therapy

recombinant Human insulin [RHI]
Cmax: ~100 mU/L
